# Data as given in patent publication US20110118131A1 (published 2011).
# Biological target: T1, IL-1β (UniProt P01584 117-269)
# T1 construct: Antigen immobilised on the Biacore chip
# Assay: Biacore, periplasmic extract
fold difference in affinity vs original,binding result,Binder
1.08 fold,–,"XPA23 light chain Q27E (Fab, V domains shown) VH: EVQLLESGGGLVQPGGSLRLSCAASGFTFSKYFMFWVRQAPGKGLEWVSVISPSGGMTRYADSVKGRFTISRDNSKNTLYLQMNSLRAEDTAVYYCARVGYGGNSDYWGQGTLVTVSS VL: DIQMTQSPSSVSASVGDRLTIICRASEDINRWLAWYQQTPGNAPKLLIHSATSLQSGVPSRFSGSGSGTDFTLTINSLQPEDFATYYCQQADSFPLTFGGGTKVEIK"
0.64 fold,–,"XPA23 light chain Q27T (Fab, V domains shown) VH: EVQLLESGGGLVQPGGSLRLSCAASGFTFSKYFMFWVRQAPGKGLEWVSVISPSGGMTRYADSVKGRFTISRDNSKNTLYLQMNSLRAEDTAVYYCARVGYGGNSDYWGQGTLVTVSS VL: DIQMTQSPSSVSASVGDRLTIICRASTDINRWLAWYQQTPGNAPKLLIHSATSLQSGVPSRFSGSGSGTDFTLTINSLQPEDFATYYCQQADSFPLTFGGGTKVEIK"
0.89 fold,–,"XPA23 light chain Q27R (Fab, V domains shown) VH: EVQLLESGGGLVQPGGSLRLSCAASGFTFSKYFMFWVRQAPGKGLEWVSVISPSGGMTRYADSVKGRFTISRDNSKNTLYLQMNSLRAEDTAVYYCARVGYGGNSDYWGQGTLVTVSS VL: DIQMTQSPSSVSASVGDRLTIICRASRDINRWLAWYQQTPGNAPKLLIHSATSLQSGVPSRFSGSGSGTDFTLTINSLQPEDFATYYCQQADSFPLTFGGGTKVEIK"
11.1 fold,–,"XPA23 light chain R31D (Fab, V domains shown) VH: EVQLLESGGGLVQPGGSLRLSCAASGFTFSKYFMFWVRQAPGKGLEWVSVISPSGGMTRYADSVKGRFTISRDNSKNTLYLQMNSLRAEDTAVYYCARVGYGGNSDYWGQGTLVTVSS VL: DIQMTQSPSSVSASVGDRLTIICRASQDINDWLAWYQQTPGNAPKLLIHSATSLQSGVPSRFSGSGSGTDFTLTINSLQPEDFATYYCQQADSFPLTFGGGTKVEIK"
3.3 fold,–,"XPA23 light chain Q27S (Fab, V domains shown) VH: EVQLLESGGGLVQPGGSLRLSCAASGFTFSKYFMFWVRQAPGKGLEWVSVISPSGGMTRYADSVKGRFTISRDNSKNTLYLQMNSLRAEDTAVYYCARVGYGGNSDYWGQGTLVTVSS VL: DIQMTQSPSSVSASVGDRLTIICRASSDINRWLAWYQQTPGNAPKLLIHSATSLQSGVPSRFSGSGSGTDFTLTINSLQPEDFATYYCQQADSFPLTFGGGTKVEIK"
–,no binding,"XPA23 light chain R31E (Fab, V domains shown) VH: EVQLLESGGGLVQPGGSLRLSCAASGFTFSKYFMFWVRQAPGKGLEWVSVISPSGGMTRYADSVKGRFTISRDNSKNTLYLQMNSLRAEDTAVYYCARVGYGGNSDYWGQGTLVTVSS VL: DIQMTQSPSSVSASVGDRLTIICRASQDINEWLAWYQQTPGNAPKLLIHSATSLQSGVPSRFSGSGSGTDFTLTINSLQPEDFATYYCQQADSFPLTFGGGTKVEIK"
8.48 fold,–,"XPA23 light chain R31A (Fab, V domains shown) VH: EVQLLESGGGLVQPGGSLRLSCAASGFTFSKYFMFWVRQAPGKGLEWVSVISPSGGMTRYADSVKGRFTISRDNSKNTLYLQMNSLRAEDTAVYYCARVGYGGNSDYWGQGTLVTVSS VL: DIQMTQSPSSVSASVGDRLTIICRASQDINAWLAWYQQTPGNAPKLLIHSATSLQSGVPSRFSGSGSGTDFTLTINSLQPEDFATYYCQQADSFPLTFGGGTKVEIK"
–,no binding,"XPA23 light chain Q27P (Fab, V domains shown) VH: EVQLLESGGGLVQPGGSLRLSCAASGFTFSKYFMFWVRQAPGKGLEWVSVISPSGGMTRYADSVKGRFTISRDNSKNTLYLQMNSLRAEDTAVYYCARVGYGGNSDYWGQGTLVTVSS VL: DIQMTQSPSSVSASVGDRLTIICRASPDINRWLAWYQQTPGNAPKLLIHSATSLQSGVPSRFSGSGSGTDFTLTINSLQPEDFATYYCQQADSFPLTFGGGTKVEIK"
1.09 fold,–,"XPA23 light chain Q27H (Fab, V domains shown) VH: EVQLLESGGGLVQPGGSLRLSCAASGFTFSKYFMFWVRQAPGKGLEWVSVISPSGGMTRYADSVKGRFTISRDNSKNTLYLQMNSLRAEDTAVYYCARVGYGGNSDYWGQGTLVTVSS VL: DIQMTQSPSSVSASVGDRLTIICRASHDINRWLAWYQQTPGNAPKLLIHSATSLQSGVPSRFSGSGSGTDFTLTINSLQPEDFATYYCQQADSFPLTFGGGTKVEIK"
0.92 fold,–,"XPA23 light chain R31F (Fab, V domains shown) VH: EVQLLESGGGLVQPGGSLRLSCAASGFTFSKYFMFWVRQAPGKGLEWVSVISPSGGMTRYADSVKGRFTISRDNSKNTLYLQMNSLRAEDTAVYYCARVGYGGNSDYWGQGTLVTVSS VL: DIQMTQSPSSVSASVGDRLTIICRASQDINFWLAWYQQTPGNAPKLLIHSATSLQSGVPSRFSGSGSGTDFTLTINSLQPEDFATYYCQQADSFPLTFGGGTKVEIK"
–,no binding,"XPA23 light chain Q27W (Fab, V domains shown) VH: EVQLLESGGGLVQPGGSLRLSCAASGFTFSKYFMFWVRQAPGKGLEWVSVISPSGGMTRYADSVKGRFTISRDNSKNTLYLQMNSLRAEDTAVYYCARVGYGGNSDYWGQGTLVTVSS VL: DIQMTQSPSSVSASVGDRLTIICRASWDINRWLAWYQQTPGNAPKLLIHSATSLQSGVPSRFSGSGSGTDFTLTINSLQPEDFATYYCQQADSFPLTFGGGTKVEIK"
–,no binding,"XPA23 light chain Q27V (Fab, V domains shown) VH: EVQLLESGGGLVQPGGSLRLSCAASGFTFSKYFMFWVRQAPGKGLEWVSVISPSGGMTRYADSVKGRFTISRDNSKNTLYLQMNSLRAEDTAVYYCARVGYGGNSDYWGQGTLVTVSS VL: DIQMTQSPSSVSASVGDRLTIICRASVDINRWLAWYQQTPGNAPKLLIHSATSLQSGVPSRFSGSGSGTDFTLTINSLQPEDFATYYCQQADSFPLTFGGGTKVEIK"
–,no binding,"XPA23 light chain Q27K (Fab, V domains shown) VH: EVQLLESGGGLVQPGGSLRLSCAASGFTFSKYFMFWVRQAPGKGLEWVSVISPSGGMTRYADSVKGRFTISRDNSKNTLYLQMNSLRAEDTAVYYCARVGYGGNSDYWGQGTLVTVSS VL: DIQMTQSPSSVSASVGDRLTIICRASKDINRWLAWYQQTPGNAPKLLIHSATSLQSGVPSRFSGSGSGTDFTLTINSLQPEDFATYYCQQADSFPLTFGGGTKVEIK"
0.92 fold,–,"XPA23 light chain R31G (Fab, V domains shown) VH: EVQLLESGGGLVQPGGSLRLSCAASGFTFSKYFMFWVRQAPGKGLEWVSVISPSGGMTRYADSVKGRFTISRDNSKNTLYLQMNSLRAEDTAVYYCARVGYGGNSDYWGQGTLVTVSS VL: DIQMTQSPSSVSASVGDRLTIICRASQDINGWLAWYQQTPGNAPKLLIHSATSLQSGVPSRFSGSGSGTDFTLTINSLQPEDFATYYCQQADSFPLTFGGGTKVEIK"
0.82 fold,–,"XPA23 light chain Q27I (Fab, V domains shown) VH: EVQLLESGGGLVQPGGSLRLSCAASGFTFSKYFMFWVRQAPGKGLEWVSVISPSGGMTRYADSVKGRFTISRDNSKNTLYLQMNSLRAEDTAVYYCARVGYGGNSDYWGQGTLVTVSS VL: DIQMTQSPSSVSASVGDRLTIICRASIDINRWLAWYQQTPGNAPKLLIHSATSLQSGVPSRFSGSGSGTDFTLTINSLQPEDFATYYCQQADSFPLTFGGGTKVEIK"
0.68 fold,–,"XPA23 light chain R31I (Fab, V domains shown) VH: EVQLLESGGGLVQPGGSLRLSCAASGFTFSKYFMFWVRQAPGKGLEWVSVISPSGGMTRYADSVKGRFTISRDNSKNTLYLQMNSLRAEDTAVYYCARVGYGGNSDYWGQGTLVTVSS VL: DIQMTQSPSSVSASVGDRLTIICRASQDINIWLAWYQQTPGNAPKLLIHSATSLQSGVPSRFSGSGSGTDFTLTINSLQPEDFATYYCQQADSFPLTFGGGTKVEIK"
–,no binding,"XPA23 light chain Q27N (Fab, V domains shown) VH: EVQLLESGGGLVQPGGSLRLSCAASGFTFSKYFMFWVRQAPGKGLEWVSVISPSGGMTRYADSVKGRFTISRDNSKNTLYLQMNSLRAEDTAVYYCARVGYGGNSDYWGQGTLVTVSS VL: DIQMTQSPSSVSASVGDRLTIICRASNDINRWLAWYQQTPGNAPKLLIHSATSLQSGVPSRFSGSGSGTDFTLTINSLQPEDFATYYCQQADSFPLTFGGGTKVEIK"
1.18 fold,–,"XPA23 light chain R31K (Fab, V domains shown) VH: EVQLLESGGGLVQPGGSLRLSCAASGFTFSKYFMFWVRQAPGKGLEWVSVISPSGGMTRYADSVKGRFTISRDNSKNTLYLQMNSLRAEDTAVYYCARVGYGGNSDYWGQGTLVTVSS VL: DIQMTQSPSSVSASVGDRLTIICRASQDINKWLAWYQQTPGNAPKLLIHSATSLQSGVPSRFSGSGSGTDFTLTINSLQPEDFATYYCQQADSFPLTFGGGTKVEIK"
–,no binding,"XPA23 light chain Q27G (Fab, V domains shown) VH: EVQLLESGGGLVQPGGSLRLSCAASGFTFSKYFMFWVRQAPGKGLEWVSVISPSGGMTRYADSVKGRFTISRDNSKNTLYLQMNSLRAEDTAVYYCARVGYGGNSDYWGQGTLVTVSS VL: DIQMTQSPSSVSASVGDRLTIICRASGDINRWLAWYQQTPGNAPKLLIHSATSLQSGVPSRFSGSGSGTDFTLTINSLQPEDFATYYCQQADSFPLTFGGGTKVEIK"
0.83 fold,–,"XPA23 light chain Q27L (Fab, V domains shown) VH: EVQLLESGGGLVQPGGSLRLSCAASGFTFSKYFMFWVRQAPGKGLEWVSVISPSGGMTRYADSVKGRFTISRDNSKNTLYLQMNSLRAEDTAVYYCARVGYGGNSDYWGQGTLVTVSS VL: DIQMTQSPSSVSASVGDRLTIICRASLDINRWLAWYQQTPGNAPKLLIHSATSLQSGVPSRFSGSGSGTDFTLTINSLQPEDFATYYCQQADSFPLTFGGGTKVEIK"
–,no binding,"XPA23 light chain R31H (Fab, V domains shown) VH: EVQLLESGGGLVQPGGSLRLSCAASGFTFSKYFMFWVRQAPGKGLEWVSVISPSGGMTRYADSVKGRFTISRDNSKNTLYLQMNSLRAEDTAVYYCARVGYGGNSDYWGQGTLVTVSS VL: DIQMTQSPSSVSASVGDRLTIICRASQDINHWLAWYQQTPGNAPKLLIHSATSLQSGVPSRFSGSGSGTDFTLTINSLQPEDFATYYCQQADSFPLTFGGGTKVEIK"
2.96 fold,–,"XPA23 light chain Q27F (Fab, V domains shown) VH: EVQLLESGGGLVQPGGSLRLSCAASGFTFSKYFMFWVRQAPGKGLEWVSVISPSGGMTRYADSVKGRFTISRDNSKNTLYLQMNSLRAEDTAVYYCARVGYGGNSDYWGQGTLVTVSS VL: DIQMTQSPSSVSASVGDRLTIICRASFDINRWLAWYQQTPGNAPKLLIHSATSLQSGVPSRFSGSGSGTDFTLTINSLQPEDFATYYCQQADSFPLTFGGGTKVEIK"
